Results taken from patent US20200024322A1 (Eli Lilly, published 2020).
Numbered stars: 1 amine (or outer) side, 2 acyl side, 3 side chain; on linkers, the order of the positions; unused ones are H or OH. Square brackets hold non-standard residues; d marks the D form. Side chains are listed from the residue outwards. Ends that are not written are not given here. * marks the point of attachment. C20 diacid = O=C(O)CCCCCCCCCCCCCCCCCCC(=O)*; γGlu = O=C(O)[C@H](CCC(=O)[*:2])N[*:1]; AEEA = NCCOCCOCC(=O)O; Aib = CC(C)(N)C(=O)O

Assays:
[1] = target: T1, human glucagon receptor (human, UniProt P47871 26-477); assay: SPA, [125I]-Gcg displacement, hGcgR membranes
T1 construct: whole, on cells; Used as crude membranes of stably transfected HEK293 cells; also called hGcgR; hGLcgR
T1 sequence (P47871 26-477): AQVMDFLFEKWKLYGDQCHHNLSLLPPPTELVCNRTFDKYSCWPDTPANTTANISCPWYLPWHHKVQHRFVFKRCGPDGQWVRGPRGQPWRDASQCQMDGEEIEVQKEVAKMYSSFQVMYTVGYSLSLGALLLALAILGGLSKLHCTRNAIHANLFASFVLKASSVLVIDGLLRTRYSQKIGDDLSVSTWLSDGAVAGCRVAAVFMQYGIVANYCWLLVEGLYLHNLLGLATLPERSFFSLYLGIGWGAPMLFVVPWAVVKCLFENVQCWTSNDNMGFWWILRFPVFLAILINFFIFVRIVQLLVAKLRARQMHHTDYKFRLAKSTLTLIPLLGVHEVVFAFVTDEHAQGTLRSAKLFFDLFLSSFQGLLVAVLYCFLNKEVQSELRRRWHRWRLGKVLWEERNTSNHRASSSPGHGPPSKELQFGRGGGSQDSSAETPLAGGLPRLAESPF

[2] = target: T2, human GIP receptor (human, UniProt P48546 22-466); assay: SPA, [125I]-GIP displacement, hGIPR membranes
T2 construct: whole, on cells; Used as crude membranes of stably transfected CHO cells; also called hGIPR
T2 sequence (looked up): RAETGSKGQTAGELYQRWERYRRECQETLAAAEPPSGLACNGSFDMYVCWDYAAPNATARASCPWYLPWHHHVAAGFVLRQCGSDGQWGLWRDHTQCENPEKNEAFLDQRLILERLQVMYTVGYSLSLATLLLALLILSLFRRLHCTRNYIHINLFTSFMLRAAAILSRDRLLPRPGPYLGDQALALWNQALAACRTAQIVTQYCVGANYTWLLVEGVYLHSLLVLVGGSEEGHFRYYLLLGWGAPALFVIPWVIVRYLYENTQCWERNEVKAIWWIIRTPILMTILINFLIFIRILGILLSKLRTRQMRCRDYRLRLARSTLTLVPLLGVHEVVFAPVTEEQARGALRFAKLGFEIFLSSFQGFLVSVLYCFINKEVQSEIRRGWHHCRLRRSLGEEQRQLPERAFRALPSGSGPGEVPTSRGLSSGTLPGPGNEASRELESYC

[3] = target: T3, human GLP-1 receptor (human, UniProt P43220 24-463); assay: SPA, [125I]-GLP-1 displacement, hGLP-1R membranes
T3 construct: whole, on cells; Used as crude membranes of stably transfected HEK293 cells; also called hGLP1R; hGLP-1R

B1: Example 29 (peptide)
peptide: Y[Aib]EGTFTSDYSILLDK([AEEA-AEEA-γGlu-C20 diacid])IAQ[Aib]AFIEYLIEGGPSSGAPPPS-NH2
modifications: N-terminus assumed
SMILES: CC[C@H](C)[C@H](NC(=O)[C@H](CCCCNC(=O)COCCOCCNC(=O)COCCOCCNC(=O)CC[C@H](NC(=O)CCCCCCCCCCCCCCCCCCC(=O)O)C(=O)O)NC(=O)[C@H](CC(=O)O)NC(=O)[C@H](CC(C)C)NC(=O)[C@H](CC(C)C)NC(=O)[C@@H](NC(=O)[C@H](CO)NC(=O)[C@H](Cc1ccc(O)cc1)NC(=O)[C@H](CC(=O)O)NC(=O)[C@H](CO)NC(=O)[C@@H](NC(=O)[C@H](Cc1ccccc1)NC(=O)[C@@H](NC(=O)CNC(=O)[C@H](CCC(=O)O)NC(=O)C(C)(C)NC(=O)[C@@H](N)Cc1ccc(O)cc1)[C@@H](C)O)[C@@H](C)O)[C@@H](C)CC)C(=O)N[C@@H](C)C(=O)N[C@@H](CCC(N)=O)C(=O)NC(C)(C)C(=O)N[C@@H](C)C(=O)N[C@@H](Cc1ccccc1)C(=O)N[C@H](C(=O)N[C@@H](CCC(=O)O)C(=O)N[C@@H](Cc1ccc(O)cc1)C(=O)N[C@@H](CC(C)C)C(=O)N[C@H](C(=O)N[C@@H](CCC(=O)O)C(=O)NCC(=O)NCC(=O)N1CCC[C@H]1C(=O)N[C@@H](CO)C(=O)N[C@@H](CO)C(=O)NCC(=O)N[C@@H](C)C(=O)N1CCC[C@H]1C(=O)N1CCC[C@H]1C(=O)N1CCC[C@H]1C(=O)N[C@@H](CO)C(N)=O)[C@@H](C)CC)[C@@H](C)CC
Question: For B1, which Ki [1] is on record?
Answer: 132 nM

Question: What about the Ki [2] of the same binder?
Answer: 0.377 nM

Question: And the Ki [3]?
Answer: 8 nM

B2: Example 6 (peptide)
peptide: Y[Aib]EGTFTSDYSILLDKK([AEEA-AEEA-γGlu-C20 diacid])AQ[Aib]AFIEYLLEGGPSSGAPPPS-NH2
modifications: N-terminus assumed
SMILES: CC[C@H](C)[C@H](NC(=O)[C@H](Cc1ccccc1)NC(=O)[C@H](C)NC(=O)C(C)(C)NC(=O)[C@H](CCC(N)=O)NC(=O)[C@H](C)NC(=O)[C@H](CCCCNC(=O)COCCOCCNC(=O)COCCOCCNC(=O)CC[C@H](NC(=O)CCCCCCCCCCCCCCCCCCC(=O)O)C(=O)O)NC(=O)[C@H](CCCCN)NC(=O)[C@H](CC(=O)O)NC(=O)[C@H](CC(C)C)NC(=O)[C@H](CC(C)C)NC(=O)[C@@H](NC(=O)[C@H](CO)NC(=O)[C@H](Cc1ccc(O)cc1)NC(=O)[C@H](CC(=O)O)NC(=O)[C@H](CO)NC(=O)[C@@H](NC(=O)[C@H](Cc1ccccc1)NC(=O)[C@@H](NC(=O)CNC(=O)[C@H](CCC(=O)O)NC(=O)C(C)(C)NC(=O)[C@@H](N)Cc1ccc(O)cc1)[C@@H](C)O)[C@@H](C)O)[C@@H](C)CC)C(=O)N[C@@H](CCC(=O)O)C(=O)N[C@@H](Cc1ccc(O)cc1)C(=O)N[C@@H](CC(C)C)C(=O)N[C@@H](CC(C)C)C(=O)N[C@@H](CCC(=O)O)C(=O)NCC(=O)NCC(=O)N1CCC[C@H]1C(=O)N[C@@H](CO)C(=O)N[C@@H](CO)C(=O)NCC(=O)N[C@@H](C)C(=O)N1CCC[C@H]1C(=O)N1CCC[C@H]1C(=O)N1CCC[C@H]1C(=O)N[C@@H](CO)C(N)=O
Question: For B2, which Ki [1] is on record?
Answer: 55.8 nM

Question: What about the Ki [2] of the same binder?
Answer: 0.0835 nM

Question: And the Ki [3]?
Answer: 6.71 nM
